From US9533026B2, “Polypeptide compounds for inhibiting angiogenesis and tumor growth” (VasGene Therapeutics, Inc., priority 2004, dated 2017)
Read-outs that look alike come from different tables or passages of the source.

B1: soluble EphB4: soluble EphB4 extracellular domain protein; exact construct not stated at the results (protein)
chain: LEETLLNTKLETADLKWVTFPQVDGQWEELSGLDEEQHSVRTYEVCDVQRAPGQAHWLRTGWVPRRGAVHVYATLRFTMLECLSLPRAGRSCKETFTVFYYESDADTATALTPAWMENPYIKVDTVAAEHLTRKRPGAEATGKVNVKTLRLGPLSKAGFYLAFQDQGACMALLSLHLFYKKCAQLTVNLTRFPETVPRELVVPVAGSCVVDAVPAPGPSPSLYCREDGQWAEQPVTGCSCAPGFEAAEGNTKCRACAQGTFKPLSGEGSCQPCPANSHSNTIGSAVCQCRVGYFRARTDPRGAPCTTPPSAPRSVVSRLNGSSLHLEWSAPLESGGREDLTYALRCRECRPGGSCAPCGGDLTFDPGPRDLVEPWVVVRGLRPDFTYTFEVTALNGVSSLATGPVPFEPVNVTTDREVPPAVSDIRVTRSSPSSLSLAWAVPRAPSGAVLDYEVKYHEKGAEGPSSVRFLKTSENRAELRGLKRGASYLVQVRARSEAGYGPFGQEHHSQTQLDESEGWREQLA
B2: B4ECv3: soluble extracellular domain derivative of human EphB4, SEQ ID NO:1 (protein)
chain: MELRVLLCWASLAAALEETLLNTKLETADLKWVTFPQVDGQWEELSGLDEEQHSVRTYEVCEVQRAPGQAHWLRTGWVPRRGAVHVYATLRFTMLECLSLPRAGRSCKETFTVFYYESDADTATALTPAWMENPYIKVDTVAAEHLTRKRPGAEATGKVNVKTLRLGPLSKAGFYLAFQDQGACMALLSLHLFYKKCAQLTVNLTRFPETVPRELVVPVAGSCVVDAVPAPGPSPSLYCREDGQWAEQPVTGCSCAPGFEAAEGNTKCRACAQGTFKPLSGEGSCQPCPANSHSNTIGSAVCQCRVGYFRARTDPRGAPCTTPPSAPRSVVSRLNGSSLHLEWSAPLESGGREDLTYALRCRECRPGGSCAPCGGDLTFDPGPRDLVEPWVVVRGLRPDFTYTFEVTALNGVSSLATGPVPFEPVNVTTDREVPPAVSDIRVTRSSPSSLSLAWAVPRAPSGAWLDYEVKYHEKGAEGPSSVRFLKTSENRAELRGLKRGASYLVQVRARSEAGYGPFGQEHHSQTQLDESEGWREQGSKRAILQIEGKPIPNPLLGLDSTRTGHHHHHH
modifications: Recombinant B4ECv3 protein

Tests used:
[1] = test system: B16 (melanoma); test: B16 melanoma tumor in mice, soluble EphB4; assay type: in vivo, mouse
Protocol: (§1) Tumors were injected premixed with Matrigel plus growth factors and soluble EphB4 subcutaneously. After 10 to 14 days, the mice were injected intravenously with FITC-lectin (green) to assess blood vessel perfusion.
30 athymic nude mice, BALB/c (nu/nu), were each injected with 1×10^6 B16 melanoma cells with 0.1 ml PBS mixed with 0.1 ml matrigel or 1.5×10^6 SCC15 cells resuspended in 200 μl of DMEM serum-free medium and injected subcutaneously on day 0 on the right shoulder region of mice. Proteins were injected intravenously or subcutaneously, around the tumor beginning on day 1 at a loading dose of 4 μg/mg, with weekly injections of 2 ug/mg. (10 μg/g, 50 μg/kg/day), and at 2 weeks post-inoculation. Mice are sacrificed on Day 14. Control mice received PBS 50 μl each day.

[2] = test system: HUVEC; test: Endothelial cell tube (cord) formation on Matrigel; assay type: cell-based, human
Protocol: (§2) Cord formation assay of HUVEC in Matrigel™ (upper row). Cells in exponential growth phase were treated overnight with the indicated concentrations of EphB4 extracellular domain (ECD) prior to plating on Matrigel™. Cells were trypsinized and plated (1×10^5 cells/well) in a 24-well plate containing 0.5 ml Matrigel™. Shown are representative 20× phase contrast fields of cord formation after 8 hr plating on Matrigel™ in the continued presence of the test compounds as shown. Original magnification 200×. KS-SLK cells treated in a similar manner (middle row) in a cord formation assay on Matrigel™. […] After 7 days the plugs were removed, sectioned and stained with H&E to visualize cells migrating into the matrix.
Matrigel (60 μl of 10 mg/ml; Collaborative Lab #35423) is placed in each well of an ice-cold 96-well plate. The plate is allowed to sit at room temperature for 15 minutes then incubated at 37° C. for 30 minutes to permit the matrigel to polymerize. In the mean time, HUVECs are prepared in EGM-2 (Clonetic #CC3162) at a concentration of 2×10^5 cells/ml. The test compound is prepared at 2× the desired concentration (5 concentration levels) in the same medium. Cells (500 μl) and 2× drug (500 μl) is mixed and 200 μl of this suspension are placed in duplicate on the polymerized matrigel. After 24 h incubation, triplicate pictures are taken for each concentration using a Bioquant Image Analysis system. Drug effect (IC50) is assessed compared to untreated controls by measuring the length of cords formed and number of junctions.
Matrigel (60 μl of 10 mg/ml; Collaborative Lab, Cat. No. 35423) was placed in each well of an ice-cold 96-well plate. The plate was allowed to sit at room temperature for 15 minutes then incubated at 37° C. for 30 minutes to permit Matrigel to polymerize. In the mean time, human umbilical vein endothelial cells were prepared in EGM-2 (Clonetic, Cat. No. CC3162) at a concentration of 2×10^5 cells/ml. The test protein was prepared at 2× the desired concentration (5 concentration levels) in the same medium. Cells (500 μl) and 2× protein (500 μl) were mixed and 200 μl of this suspension were placed in duplicate on the polymerized Matrigel. After 24 h incubation, triplicate pictures were taken for each concentration using a Bioquant Image Analysis system. Protein addition effect (IC50) was assessed compared to untreated controls by measuring the length of cords formed and number of junctions.

[3] = test system: vascularization of Matrigel plugs; test: Murine Matrigel plug angiogenesis assay; assay type: in vivo, mouse; conditions: for vascularization of Matrigel plugs / in vivo angiogenesis: plugs with bFGF and VEGF, s.c., mice; for infiltration / invasion of cells into Matrigel plugs: plugs with growth factors
Protocol: as §2
Matrigel supplemented with bFGF and VEGF with and without soluble EphB4 was injected s.c. into Balb/C nu/nu mice, forming semi-solid plugs, for six days. Plugs without growth factors had virtually no vascularization or vessel structures after 6 days (FIG. 21). In contrast, plugs supplemented with bFGF and VEGF had extensive vascularization and vessels throughout the plug.
In vivo angiogenesis was assayed in mice as growth of blood vessels from subcutaneous tissue into a Matrigel plug containing the test sample. Matrigel rapidly forms a solid gel at body temperature, trapping the factors to allow slow release and prolonged exposure to surrounding tissues. Matrigel (8.13 mg/ml, 0.5 ml) in liquid form at 4° C. was mixed with Endothelial Cell Growth Supplement (ECGS), test proteins plus ECGS or Matrigel plus vehicle alone (PBS containing 0.25% BSA). Matrigel (0.5 ml) was injected into the abdominal subcutaneous tissue of female nu/nu mice (6 wks old) along the peritoneal mid line. There were 3 mice in each group. The animals were cared for in accordance with institutional and NIH guidelines. At day 6, mice were sacrificed and plugs were recovered and processed for histology. Typically the overlying skin was removed, and gels were cut out by retaining the peritoneal lining for support, fixed in 10% buffered formalin in PBS and embedded in paraffin. Sections of 3 μm were cut and stained with H&E or Masson's trichrome stain and examined under light microscope

[4] = test system: MCF-7 (breast carcinoma); test: MCF-7 tumor in mice, soluble EphB4; assay type: in vivo, mouse
Protocol: as §1

[5] = test system: human endothelial cells; test: Endothelial cell chemotaxis / migration (Boyden chamber); assay type: cell-based; conditions: for chemotaxis of human endothelial cells: umbilical cord and hepatic AECs or VECs, growth factor stimuli
Protocol: Migration is assessed using the 48-well Boyden chamber and 8 μm pore size collagen-coated (10 μg/ml rat tail collagen; Collaborative Laboratories) polycarbonate filters (Osmonics, Inc.). The bottom chamber wells receive 27-29 μl of DMEM medium alone (baseline) or medium containing chemo-attractant (bFGF, VEGF or Swiss 3T3 cell conditioned medium). The top chambers receive 45 μl of HUVEC cell suspension (1×10^6 cells/ml) prepared in DMEM+1% BSA with or without test compound. After 5 h incubation at 37° C., the membrane is rinsed in PBS, fixed and stained in Diff-Quick solutions. The filter is placed on a glass slide with the migrated cells facing down and cells on top are removed using a Kimwipe. The testing is performed in 4-6 replicates and five fields are counted from each well. Negative unstimulated control values are subtracted from stimulated control and drug treated values and data is plotted as mean migrated cell±S.D. IC50 is calculated from the plotted data.
Chemotaxis of HUVECs to VEGF was assessed using a modified Boyden chamber, transwell membrane filter inserts in 24 well plates, 6.5 mm diam, 8 μm pore size, 10 μm thick matrigel coated, polycarbonate membranes (BD Biosciences). The cell suspensions of HUVECs (2×10^5 cells/ml) in 200 μl of EBM were seeded in the upper chamber and the soluble EphB4 protein were added simultaneously with stimulant (VEGF or bFGF) to the lower compartment of the chamber and their migration across a polycarbonate filter in response to 10-20 ng/ml of VEGF with or without 100 nM-1 μM test compound was investigated. After incubation for 4-24 h at 37° C., the upper surface of the filter was scraped with swab and filters were fixed and stained with Diff Quick. Ten random fields at 200× mag were counted and the results expressed as mean # per field. Negative unstimulated control values were subtracted from stimulated control and protein treated sample values and the data was plotted as mean migrated cell±S.D. IC50 was calculated from the plotted data.

| Molecule | tumor angiogenesis ([1]; B16, premixed with Matrigel plus growth factors, 10 to 14 days) | endothelial cell tube / tubule / cord formation [2] | endothelial cell tube / tubule / cord formation ([2]; listed as EphB4-ECD) | vascularization of Matrigel plugs / in vivo angiogenesis [3] | vascularization of Matrigel plugs / in vivo angiogenesis ([3]; listed as EphB4-ECD) | infiltration / invasion of cells into Matrigel plugs [3] | infiltration / invasion of cells into Matrigel plugs ([3]; listed as EphB4 ECD) | tumor angiogenesis ([4]; MCF-7, premixed with Matrigel plus growth factors, 10 to 14 days) | bFGF and VEGF-induced migration ([5]; HUV/AEC, Boyden chamber, dose-dependent) | in vivo tumor growth ([1]; B16 co-injected with matrigel and growth factors) | endothelial cell tube / tubule / cord formation ([2]; listed as B4v3) | in vivo tumor growth ([4]; MCF-7 co-injected with matrigel and growth factors) | chemotaxis of human endothelial cells [5] | chemotaxis of human endothelial cells ([5]; listed as EphB4v3) |
| --- | --- | --- | --- | --- | --- | --- | --- | --- | --- | --- | --- | --- | --- | --- |
| B1 | marked inhibition | significantly inhibited | inhibits | markedly reduced | inhibits | significantly inhibited | almost completely inhibited | marked inhibition | significantly inhibited | – | – | – | – | – |
| B2 | – | inhibition | – | – | – | inhibits invasion | – | – | – | inhibits | strong inhibition | inhibits | blocked chemotaxis | inhibits chemotaxis |
